Assay results reported in IntAct's records for PubMed 31515488.

B1: TBC1 domain family member 22B (Homo sapiens), Q9NU19 (parent)
chain: MAAENSKQFWKRSAKLPGSIQPVYGAQHPPLDPRLTKNFIKERSKVNTVPLKNKKASSFHEFARNTSDAWDIGDDEEEDFSSPSFQTLNSKVALATAAQVLENHSKLRVKPERSQSTTSDVPANYKVIKSSSDAQLSRNSSDTCLRNPLHKQQSLPLRPIIPLVARISDQNASGAPPMTVREKTRLEKFRQLLSSQNTDLDELRKCSWPGVPREVRPITWRLLSGYLPANTERRKLTLQRKREEYFGFIEQYYDSRNEEHHQDTYRQIHIDIPRTNPLIPLFQQPLVQEIFERILFIWAIRHPASGYVQGINDLVTPFFVVFLSEYVEEDVENFDVTNLSQDMLRSIEADSFWCMSKLLDGIQDNYTFAQPGIQKKVKALEELVSRIDEQVHNHFRRYEVEYLQFAFRWMNNLLMRELPLRCTIRLWDTYQSEPEGFSHFHLYVCAAFLIKWRKEILDEEDFQGLLMLLQNLPTIHWGNEEIGLLLAEAYRLKYMFADAPNHYRR
partner: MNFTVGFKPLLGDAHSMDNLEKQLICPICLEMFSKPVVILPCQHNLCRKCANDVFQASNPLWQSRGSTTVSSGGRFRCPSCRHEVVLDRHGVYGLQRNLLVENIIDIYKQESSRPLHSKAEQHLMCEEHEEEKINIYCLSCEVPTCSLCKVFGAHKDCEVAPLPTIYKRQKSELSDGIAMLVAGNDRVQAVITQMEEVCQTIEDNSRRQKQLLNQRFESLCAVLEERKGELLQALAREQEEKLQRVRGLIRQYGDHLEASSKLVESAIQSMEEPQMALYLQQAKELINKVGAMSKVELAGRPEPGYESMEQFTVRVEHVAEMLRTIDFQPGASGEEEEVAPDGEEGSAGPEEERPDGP
B2: Leucine-rich repeat-containing protein 45 (Homo sapiens), Q96CN5 (parent)
chain: MEEFRRSYSRLCRESGAEPQEAVLQQLHQLPRGRLDLATQSLTVETCRALGKLLPRETLCTELVLSDCMLSEEGATLLLRGLCANTVLRFLDLKGNNLRAAGAEALGKLLQQNKSIQSLTLEWNSLGTWDDAFATFCGGLAANGALQRLDLRNNQISHKGAEELALALKGNTTLQQLDLRWNNVGLLGGRALMNCLPSNRTLWRLDLAGNNIPGDVLRAVEQAMGHSQDRLTTFQENQARTHVLSKEVQHLREEKSKQFLDLMETIDKQREEMAKSSRASAARVGQLQEALNERHSIINALKAKLQMTEAALALSEQKAQDLGELLATAEQEQLSLSQRQAKELKLEQQEAAERESKLLRDLSAANEKNLLLQNQVDELERKFRCQQEQLFQTRQEMTSMSAELKMRAIQAEERLDMEKRRCRQSLEDSESLRIKEVEHMTRHLEESEKAMQERVQRLEAARLSLEEELSRVKAAALSERGQAEEELIKAKSQARLEEQQRLAHLEDKLRLLAQARDEAQGACLQQKQVVAEAQTRVSQLGLQVEGLRRRLEELQQELSLKDQERVAEVSRVRVELQEQNGRLQAELAAQEALREKAAALERQLKVMASDHREALLDRESENASLREKLRLREAEIARIRDEEAQRASFLQNAVLAYVQASPVRTLSPPK
partner: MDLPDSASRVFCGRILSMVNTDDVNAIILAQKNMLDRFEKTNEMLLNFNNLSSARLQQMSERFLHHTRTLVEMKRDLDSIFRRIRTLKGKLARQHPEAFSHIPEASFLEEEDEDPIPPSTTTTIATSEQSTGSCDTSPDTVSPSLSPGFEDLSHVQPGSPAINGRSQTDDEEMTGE
B3: Tuftelin-interacting protein 11 (Homo sapiens), Q9UBB9 (parent)
chain: MSLSHLYRDGEGRIDDDDDERENFEITDWDLQNEFNPNRQRHWQTKEEATYGVWAERDSDDERPSFGGKRARDYSAPVNFISAGLKKGAAEEAELEDSDDEEKPVKQDDFPKDFGPRKLKTGGNFKPSQKGFAGGTKSFMDFGSWERHTKGIGQKLLQKMGYVPGRGLGKNAQGIINPIEAKQRKGKGAVGAYGSERTTQSMQDFPVVDSEEEAEEEFQKELSQWRKDPSGSKKKPKYSYKTVEELKAKGRISKKLTAPQKELSQVKVIDMTGREQKVYYSYSQISHKHNVPDDGLPLQSQQLPQSGKEAKAPGFALPELEHNLQLLIDLTEQEIIQNDRQLQYERDMVVNLFHELEKMTEVLDHEERVISNLSKVLEMVEECERRMQPDCSNPLTLDECARIFETLQDKYYEEYRMSDRVDLAVAIVYPLMKEYFKEWDPLKDCTYGTEIISKWKSLLENDQLLSHGGQDLSADAFHRLIWEVWMPFVRNIVTQWQPRNCDPMVDFLDSWVHIIPVWILDNILDQLIFPKLQKEVENWNPLTDTVPIHSWIHPWLPLMQARLEPLYSPIRSKLSSALQKWHPSDSSAKLILQPWKDVFTPGSWEAFMVKNIVPKLGMCLGELVINPHQQHMDAFYWVIDWEGMISVSSLVGLLEKHFFPKWLQVLCSWLSNSPNYEEITKWYLGWKSMFSDQVLAHPSVKDKFNEALDIMNRAVSSNVGAYMQPGARENIAYLTHTERRKDFQYEAMQERREAENMAQRGIGVAASSVPMNFKDLIETKAEEHNIVFMPVIGKRHEGKQLYTFGRIVIYIDRGVVFVQGEKTWVPTSLQSLIDMAK
partner: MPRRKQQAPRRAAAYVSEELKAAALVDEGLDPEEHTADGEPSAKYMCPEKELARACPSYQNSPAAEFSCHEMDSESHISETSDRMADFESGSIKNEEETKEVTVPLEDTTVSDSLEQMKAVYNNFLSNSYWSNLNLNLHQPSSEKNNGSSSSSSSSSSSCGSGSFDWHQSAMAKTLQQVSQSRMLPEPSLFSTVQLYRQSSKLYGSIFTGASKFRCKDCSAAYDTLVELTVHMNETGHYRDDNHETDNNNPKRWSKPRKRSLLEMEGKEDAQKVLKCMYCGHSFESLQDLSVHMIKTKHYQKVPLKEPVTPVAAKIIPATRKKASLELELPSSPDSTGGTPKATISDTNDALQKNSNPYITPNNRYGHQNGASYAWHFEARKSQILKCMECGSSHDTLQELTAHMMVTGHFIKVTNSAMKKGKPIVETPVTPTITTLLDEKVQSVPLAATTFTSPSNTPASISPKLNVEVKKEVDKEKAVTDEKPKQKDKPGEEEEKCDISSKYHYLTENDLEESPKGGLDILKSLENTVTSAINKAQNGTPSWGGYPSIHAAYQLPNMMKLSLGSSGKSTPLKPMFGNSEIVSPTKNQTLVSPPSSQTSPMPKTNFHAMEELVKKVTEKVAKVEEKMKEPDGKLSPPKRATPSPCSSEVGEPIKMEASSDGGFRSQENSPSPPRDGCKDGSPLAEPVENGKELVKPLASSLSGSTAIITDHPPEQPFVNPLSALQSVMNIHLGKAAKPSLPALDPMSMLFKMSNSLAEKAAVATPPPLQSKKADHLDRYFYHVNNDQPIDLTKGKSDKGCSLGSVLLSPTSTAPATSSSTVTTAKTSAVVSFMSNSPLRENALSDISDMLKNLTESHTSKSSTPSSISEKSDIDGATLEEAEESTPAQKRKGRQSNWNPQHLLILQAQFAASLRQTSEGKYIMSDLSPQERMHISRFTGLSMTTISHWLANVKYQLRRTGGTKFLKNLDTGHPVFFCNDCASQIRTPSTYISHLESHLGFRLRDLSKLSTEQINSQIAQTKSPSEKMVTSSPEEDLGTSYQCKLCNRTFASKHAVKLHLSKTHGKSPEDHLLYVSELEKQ
B4: THAP domain-containing protein 7 (Homo sapiens), Q9BT49 (parent)
chain: MPRHCSAAGCCTRDTRETRNRGISFHRLPKKDNPRRGLWLANCQRLDPSGQGLWDPASEYIYFCSKHFEEDCFELVGISGYHRLKEGAVPTIFESFSKLRRTTKTKGHSYPPGPAEVSRLRRCRKRCSEGRGPTTPFSPPPPADVTCFPVEEASAPATLPASPAGRLEPGLSSPFSDLLGPLGAQADEAGCSAQPSPERQPSPLEPRPVSPSAYMLRLPPPAGAYIQNEHSYQVGSALLWKRRAEAALDALDKAQRQLQACKRREQRLRLRLTKLQQERAREKRAQADARQTLKEHVQDFAMQLSSSMA
B5: Serine/threonine-protein kinase PAK 5 (Homo sapiens), Q9P286 (parent)
chain: MFGKKKKKIEISGPSNFEHRVHTGFDPQEQKFTGLPQQWHSLLADTANRPKPMVDPSCITPIQLAPMKTIVRGNKPCKETSINGLLEDFDNISVTRSNSLRKESPPTPDQGASSHGPGHAEENGFITFSQYSSESDTTADYTTEKYREKSLYGDDLDPYYRGSHAAKQNGHVMKMKHGEAYYSEVKPLKSDFARFSADYHSHLDSLSKPSEYSDLKWEYQRASSSSPLDYSFQFTPSRTAGTSGCSKESLAYSESEWGPSLDDYDRRPKSSYLNQTSPQPTMRQRSRSGSGLQEPMMPFGASAFKTHPQGHSYNSYTYPRLSEPTMCIPKVDYDRAQMVLSPPLSGSDTYPRGPAKLPQSQSKSGYSSSSHQYPSGYHKATLYHHPSLQSSSQYISTASYLSSLSLSSSTYPPPSWGSSSDQQPSRVSHEQFRAALQLVVSPGDPREYLANFIKIGEGSTGIVCIATEKHTGKQVAVKKMDLRKQQRRELLFNEVVIMRDYHHDNVVDMYSSYLVGDELWVVMEFLEGGALTDIVTHTRMNEEQIATVCLSVLRALSYLHNQGVIHRDIKSDSILLTSDGRIKLSDFGFCAQVSKEVPKRKSLVGTPYWMAPEVISRLPYGTEVDIWSLGIMVIEMIDGEPPYFNEPPLQAMRRIRDSLPPRVKDLHKVSSVLRGFLDLMLVREPSQRATAQELLGHPFLKLAGPPSCIVPLMRQYRHH
B6: Ribose-phosphate pyrophosphokinase 1 (Homo sapiens), P60891 (parent)
chain: MPNIKIFSGSSHQDLSQKIADRLGLELGKVVTKKFSNQETCVEIGESVRGEDVYIVQSGCGEINDNLMELLIMINACKIASASRVTAVIPCFPYARQDKKDKSRAPISAKLVANMLSVAGADHIITMDLHASQIQGFFDIPVDNLYAEPAVLKWIRENISEWRNCTIVSPDAGGAKRVTSIADRLNVDFALIHKERKKANEVDRMVLVGDVKDRVAILVDDMADTCGTICHAADKLLSAGATRVYAILTHGIFSGPAISRINNACFEAVVVTNTIPQEDKMKHCSKIQVIDISMILAEAIRRTHNGESVSYLFSHVPL
partner: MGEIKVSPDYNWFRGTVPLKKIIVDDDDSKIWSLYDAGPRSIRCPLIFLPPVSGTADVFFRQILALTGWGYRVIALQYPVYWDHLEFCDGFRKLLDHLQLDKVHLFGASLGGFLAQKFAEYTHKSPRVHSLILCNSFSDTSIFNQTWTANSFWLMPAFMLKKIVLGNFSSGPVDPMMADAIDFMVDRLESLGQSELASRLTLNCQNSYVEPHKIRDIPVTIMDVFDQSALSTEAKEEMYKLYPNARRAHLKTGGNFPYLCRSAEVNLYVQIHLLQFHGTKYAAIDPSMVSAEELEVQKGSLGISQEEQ
B7: STAM-binding protein (Homo sapiens), O95630 (parent)
chain: MSDHGDVSLPPEDRVRALSQLGSAVEVNEDIPPRRYFRSGVEIIRMASIYSEEGNIEHAFILYNKYITLFIEKLPKHRDYKSAVIPEKKDTVKKLKEIAFPKAEELKAELLKRYTKEYTEYNEEKKKEAEELARNMAIQQELEKEKQRVAQQKQQQLEQEQFHAFEEMIRNQELEKERLKIVQEFGKVDPGLGGPLVPDLEKPSLDVFPTLTVSSIQPSDCHTTVRPAKPPVVDRSLKPGALSNSESIPTIDGLRHVVVPGRLCPQFLQLASANTARGVETCGILCGKLMRNEFTITHVLIPKQSAGSDYCNTENEEELFLIQDQQGLITLGWIHTHPTQTAFLSSVDLHTHCSYQMMLPESVAIVCSPKFQETGFFKLTDHGLEEISSCRQKGFHPHSKDPPLFCSCSHVTVVDRAVTITDLR

Variants of: B1
Settings: with tri54_human TRIM54, Q9BYV2

Row | Variant | effect of a mutation on the interaction
1 | P177A | with no effect

Variants of: B2
Settings: with kxdl1_human KXD1, Q9BQD3

Row | Variant | effect of a mutation on the interaction
2 | A365V | with no effect
3 | R480H | with no effect

Variants of: B3
Settings: with tsh3_human TSHZ3, Q63HK5

Row | Variant | effect of a mutation on the interaction
4 | R8Q | with no effect
5 | S688L | with no effect

Variants of: B4
Settings: with mdfi_human MDFI

Row | Variant | effect of a mutation on the interaction
6 | E168D | disrupting interaction strength

Variants of: B4
Settings: with traf2_human TRAF2, Q12933
traf2_human TRAF2, Q12933, sequence (Q12933 whole entry): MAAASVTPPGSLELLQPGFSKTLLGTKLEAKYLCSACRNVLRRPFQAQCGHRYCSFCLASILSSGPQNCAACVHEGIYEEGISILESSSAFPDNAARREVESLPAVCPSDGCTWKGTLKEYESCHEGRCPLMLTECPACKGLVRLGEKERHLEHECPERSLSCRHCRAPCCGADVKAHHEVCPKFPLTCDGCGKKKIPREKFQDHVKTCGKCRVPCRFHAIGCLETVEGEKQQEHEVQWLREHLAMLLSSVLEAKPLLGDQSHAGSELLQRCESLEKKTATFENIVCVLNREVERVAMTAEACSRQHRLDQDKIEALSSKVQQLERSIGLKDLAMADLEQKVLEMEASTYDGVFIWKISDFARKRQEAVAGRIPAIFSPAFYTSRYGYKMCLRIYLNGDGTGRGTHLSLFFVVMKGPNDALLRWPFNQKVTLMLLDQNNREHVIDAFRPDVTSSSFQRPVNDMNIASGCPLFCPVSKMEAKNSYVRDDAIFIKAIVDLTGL

Row | Variant | effect of a mutation on the interaction
7 | E168D | with no effect

Variants of: B4
Settings: with set_human SET

Row | Variant | effect of a mutation on the interaction
8 | E168D | with no effect

Variants of: B5
Settings: with uxt_human UXT

Row | Variant | effect of a mutation on the interaction
9 | V604I | with no effect
10 | R335P | with no effect
11 | S511N | with no effect

Variants of: B5
Settings: with fhl3_human FHL3, Q13643
fhl3_human FHL3, Q13643, sequence (Q13643 whole entry): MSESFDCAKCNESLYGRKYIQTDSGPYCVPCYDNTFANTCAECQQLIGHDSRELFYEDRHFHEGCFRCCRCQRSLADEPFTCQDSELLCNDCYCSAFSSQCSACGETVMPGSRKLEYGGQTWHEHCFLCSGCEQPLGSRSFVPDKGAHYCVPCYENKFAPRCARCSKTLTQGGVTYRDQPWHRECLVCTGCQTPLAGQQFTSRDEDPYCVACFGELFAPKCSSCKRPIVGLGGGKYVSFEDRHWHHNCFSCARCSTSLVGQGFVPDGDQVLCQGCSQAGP

Row | Variant | effect of a mutation on the interaction
12 | V604I | with no effect
13 | S511N | with no effect

Variants of: B5
Settings: with pdli7_human PDLIM7, Q9NR12
pdli7_human PDLIM7, Q9NR12, sequence (Q9NR12 whole entry): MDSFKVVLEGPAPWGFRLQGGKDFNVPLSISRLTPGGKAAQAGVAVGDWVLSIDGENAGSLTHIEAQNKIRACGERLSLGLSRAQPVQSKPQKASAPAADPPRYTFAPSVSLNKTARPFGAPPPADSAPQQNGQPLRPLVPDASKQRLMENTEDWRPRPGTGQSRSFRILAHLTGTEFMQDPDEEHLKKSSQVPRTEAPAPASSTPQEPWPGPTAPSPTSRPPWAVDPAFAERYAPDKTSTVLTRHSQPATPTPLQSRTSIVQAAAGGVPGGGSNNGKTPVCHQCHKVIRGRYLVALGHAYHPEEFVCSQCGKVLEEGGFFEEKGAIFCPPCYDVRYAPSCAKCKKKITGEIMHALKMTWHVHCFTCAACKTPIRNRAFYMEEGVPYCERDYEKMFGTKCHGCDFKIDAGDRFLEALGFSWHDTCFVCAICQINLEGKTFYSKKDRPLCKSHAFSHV

Row | Variant | effect of a mutation on the interaction
14 | V604I | with no effect
15 | S511N | with no effect

Variants of: B5
Settings: with crbn_human CRBN

Row | Variant | effect of a mutation on the interaction
16 | R335P | with no effect

Variants of: B5
Settings: with gcp4_human TUBGCP4, Q9UGJ1
gcp4_human TUBGCP4, Q9UGJ1, sequence (Q9UGJ1 whole entry): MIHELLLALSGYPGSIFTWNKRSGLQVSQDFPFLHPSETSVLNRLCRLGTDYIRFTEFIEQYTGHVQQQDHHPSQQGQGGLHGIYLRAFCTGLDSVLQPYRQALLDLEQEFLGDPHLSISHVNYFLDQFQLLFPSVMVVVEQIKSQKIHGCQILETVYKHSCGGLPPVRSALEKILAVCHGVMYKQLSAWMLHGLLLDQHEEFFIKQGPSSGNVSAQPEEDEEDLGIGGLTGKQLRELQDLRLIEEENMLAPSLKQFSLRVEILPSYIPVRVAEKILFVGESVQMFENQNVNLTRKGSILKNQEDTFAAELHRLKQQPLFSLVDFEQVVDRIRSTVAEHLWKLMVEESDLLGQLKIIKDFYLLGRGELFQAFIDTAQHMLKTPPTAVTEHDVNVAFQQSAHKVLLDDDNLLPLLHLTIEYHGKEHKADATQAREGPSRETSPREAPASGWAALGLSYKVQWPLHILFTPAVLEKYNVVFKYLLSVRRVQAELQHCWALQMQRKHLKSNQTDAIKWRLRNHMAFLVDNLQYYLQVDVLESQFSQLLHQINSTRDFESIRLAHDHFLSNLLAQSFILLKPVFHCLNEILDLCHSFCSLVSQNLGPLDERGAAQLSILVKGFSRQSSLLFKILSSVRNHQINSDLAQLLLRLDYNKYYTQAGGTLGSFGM

Row | Variant | effect of a mutation on the interaction
17 | R335P | with no effect

Variants of: B6
Settings: with spg21_human SPG21, Q9NZD8

Row | Variant | effect of a mutation on the interaction
18 | E43D | with no effect
19 | D183H | with no effect

Variants of: B7
Settings: with grb2_human GRB2, P62993
grb2_human GRB2, P62993, sequence (P62993 whole entry, looked up): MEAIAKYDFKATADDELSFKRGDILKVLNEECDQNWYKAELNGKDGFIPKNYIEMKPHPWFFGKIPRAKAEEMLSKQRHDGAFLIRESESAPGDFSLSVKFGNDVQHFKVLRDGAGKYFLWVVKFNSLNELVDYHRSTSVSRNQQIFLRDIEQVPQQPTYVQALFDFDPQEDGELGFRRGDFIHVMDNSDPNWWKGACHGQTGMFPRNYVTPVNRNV

Row | Variant | effect of a mutation on the interaction
20 | E167K | disrupting interaction strength
21 | R255H | with no effect
22 | Q155H | disrupting interaction strength

Variants of: B7
Settings: with stam2_human STAM2, O75886

Row | Variant | effect of a mutation on the interaction
23 | R255H | with no effect
24 | Q155H | disrupting interaction strength
